Reference: patent publication US20070244048A1 (published 2007)
Several values for one entry are separate records, joined by “and”; a condition that tells them apart may be missing. Equal values may be shown once. Non-standard residues stand in square brackets, D forms with d. No end group written: not given here. (PEG)2 40 kDa = branched PEG of 40 kDa linked via the Cys side-chain thiol (code C2 = Cys(PEG)2 40 kDa); Cholesteroyl = cholesterol linked to a cysteine residue via the side-chain thiol

T1: mouse NMUR1-ATG (mouse, UniProt O55040 1-428)
T1 sequence (looked up): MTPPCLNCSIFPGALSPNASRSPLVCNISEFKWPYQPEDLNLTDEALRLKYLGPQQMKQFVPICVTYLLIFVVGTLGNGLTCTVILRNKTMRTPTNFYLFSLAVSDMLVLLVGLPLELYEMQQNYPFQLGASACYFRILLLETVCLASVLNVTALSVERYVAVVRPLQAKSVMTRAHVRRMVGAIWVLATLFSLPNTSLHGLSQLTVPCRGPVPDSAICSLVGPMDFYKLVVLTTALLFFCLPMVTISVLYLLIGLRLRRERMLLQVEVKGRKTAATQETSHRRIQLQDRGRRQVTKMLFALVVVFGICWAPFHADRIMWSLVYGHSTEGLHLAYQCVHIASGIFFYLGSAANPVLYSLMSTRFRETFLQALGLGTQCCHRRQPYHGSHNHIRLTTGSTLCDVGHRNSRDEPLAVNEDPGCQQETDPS

T2: mouse NMUR1-CTG (mouse, UniProt O55040 1-428)
T2 sequence (looked up): T1 sequence (looked up)

T3: rat NMUR1-TTG (rat, UniProt Q9JJI5 1-425)
T3 sequence (looked up): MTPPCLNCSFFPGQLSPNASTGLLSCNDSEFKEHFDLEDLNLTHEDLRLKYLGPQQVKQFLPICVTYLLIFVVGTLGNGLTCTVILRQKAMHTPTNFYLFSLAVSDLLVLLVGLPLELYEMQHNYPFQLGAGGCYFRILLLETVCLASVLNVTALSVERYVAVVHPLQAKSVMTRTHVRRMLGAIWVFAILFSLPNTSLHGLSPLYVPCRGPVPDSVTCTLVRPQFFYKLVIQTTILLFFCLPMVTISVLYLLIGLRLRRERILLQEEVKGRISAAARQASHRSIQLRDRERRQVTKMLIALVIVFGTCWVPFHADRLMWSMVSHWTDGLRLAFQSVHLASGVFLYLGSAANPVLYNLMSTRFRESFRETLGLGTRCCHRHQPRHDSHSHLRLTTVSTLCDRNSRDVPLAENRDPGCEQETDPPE

T4: rat NMUR1-ATG (rat, UniProt Q9JJI5 1-425)
T4 sequence (looked up): T3 sequence (looked up)

T5: human NMUR1 (human, UniProt Q9HB89 1-426)
T5 sequence (looked up): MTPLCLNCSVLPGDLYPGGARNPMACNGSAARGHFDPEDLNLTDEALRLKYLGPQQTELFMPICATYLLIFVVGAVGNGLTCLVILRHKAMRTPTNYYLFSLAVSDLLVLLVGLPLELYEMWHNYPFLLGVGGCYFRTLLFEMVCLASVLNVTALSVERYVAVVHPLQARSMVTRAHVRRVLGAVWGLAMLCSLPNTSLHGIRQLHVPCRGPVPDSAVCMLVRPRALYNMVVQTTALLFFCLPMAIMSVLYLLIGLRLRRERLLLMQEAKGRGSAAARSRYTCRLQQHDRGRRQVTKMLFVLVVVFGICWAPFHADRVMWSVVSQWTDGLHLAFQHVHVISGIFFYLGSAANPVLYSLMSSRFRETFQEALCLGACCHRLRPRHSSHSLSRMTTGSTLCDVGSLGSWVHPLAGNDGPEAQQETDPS


molecular target: T1, mouse NMUR1-ATG; experiment: cell-based or functional assay

Binder	% Activity (FLIPR)	EC50 (FLIPR)
Ac-C((PEG)2 40 kDa)FRVDEEFQSPFASQSRGYFLFRPRN-NH2 [NMU9]	95%	45.7 nM
Ac-C(Cholesteroyl)FRVDEEFQSPFASQSRGYFLFRPRN-NH2 [NMU10]	76.8%	173 nM
Ac-C(Cholesteroyl)GYFLFRPRN-NH2 [NMU11]	81.3%	1000 nM
Ac-C((PEG)2 40 kDa)FRVDEEFQSPFASQSRGYFLFRPRN-NH2 [NMU12]	98.4%	72 nM
Ac-C((PEG)2 40 kDa)FRVDEEFQSPFASQSRGYF[dA]WRPRN-NH2 [NMU14]	60.8%	584 nM

molecular target: T2, mouse NMUR1-CTG; experiment: cell-based or functional assay

Binder	% Activity (FLIPR)	EC50 (FLIPR)
Ac-C((PEG)2 40 kDa)FRVDEEFQSPFASQSRGYFLFRPRN-NH2 [NMU9]	71.7%	1000 nM
Ac-C(Cholesteroyl)FRVDEEFQSPFASQSRGYFLFRPRN-NH2 [NMU10]	69.2%	1000 nM
Ac-C(Cholesteroyl)GYFLFRPRN-NH2 [NMU11]	65%	600 nM
Ac-C((PEG)2 40 kDa)FRVDEEFQSPFASQSRGYFLFRPRN-NH2 [NMU12]	68.5%	407 nM
Ac-C((PEG)2 40 kDa)FRVDEEFQSPFASQSRGYF[dA]WRPRN-NH2 [NMU14]	24.8%	> 1000 nM

molecular target: mouse NMUR2 (mouse, UniProt Q8BZ39 1-395); experiment: cell-based or functional assay
Sequence (Q8BZ39 whole entry): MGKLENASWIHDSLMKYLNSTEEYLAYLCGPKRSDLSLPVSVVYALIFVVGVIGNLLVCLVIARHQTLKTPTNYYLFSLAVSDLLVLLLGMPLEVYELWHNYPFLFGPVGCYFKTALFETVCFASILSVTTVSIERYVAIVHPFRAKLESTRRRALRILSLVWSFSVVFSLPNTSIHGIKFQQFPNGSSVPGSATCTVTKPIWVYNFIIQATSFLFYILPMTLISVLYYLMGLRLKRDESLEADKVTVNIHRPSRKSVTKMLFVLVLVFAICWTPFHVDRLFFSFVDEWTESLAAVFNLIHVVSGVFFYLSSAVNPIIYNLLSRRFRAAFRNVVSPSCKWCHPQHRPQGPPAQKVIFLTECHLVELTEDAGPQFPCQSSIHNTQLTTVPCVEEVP

Binder	% Activity (FLIPR)	EC50 (FLIPR)
FRVDEEFQSPFASQSRGYFLFRPRN-NH2 (not fully specified (N-terminus)) [NMU1]	95.7%	31 nM
Ac-C((PEG)2 40 kDa)FRVDEEFQSPFASQSRGYFLFRPRN-NH2 [NMU9]	100%	19 nM
Ac-C(Cholesteroyl)FRVDEEFQSPFASQSRGYFLFRPRN-NH2 [NMU10]	70.5%	1000 nM
Ac-C(Cholesteroyl)GYFLFRPRN-NH2 [NMU11]	70.5%	1000 nM
Ac-C((PEG)2 40 kDa)FRVDEEFQSPFASQSRGYFLFRPRN-NH2 [NMU12]	94.1%	19.1 nM
Ac-C((PEG)2 40 kDa)FRVDEEFQSPFASQSRGYF[dA]WRPRN-NH2 [NMU14]	0%	> 1000 nM

molecular target: T3, rat NMUR1-TTG; experiment: cell-based or functional assay

Binder	% Activity (FLIPR)	EC50 (FLIPR)
Ac-C((PEG)2 40 kDa)FRVDEEFQSPFASQSRGYF[dA]WRPRN-NH2 [NMU14]	36.7%	> 1000 nM

molecular target: rat NMUR2 (rat, UniProt Q9ESQ4 1-395); experiment: cell-based or functional assay
Sequence (Q9ESQ4 whole entry): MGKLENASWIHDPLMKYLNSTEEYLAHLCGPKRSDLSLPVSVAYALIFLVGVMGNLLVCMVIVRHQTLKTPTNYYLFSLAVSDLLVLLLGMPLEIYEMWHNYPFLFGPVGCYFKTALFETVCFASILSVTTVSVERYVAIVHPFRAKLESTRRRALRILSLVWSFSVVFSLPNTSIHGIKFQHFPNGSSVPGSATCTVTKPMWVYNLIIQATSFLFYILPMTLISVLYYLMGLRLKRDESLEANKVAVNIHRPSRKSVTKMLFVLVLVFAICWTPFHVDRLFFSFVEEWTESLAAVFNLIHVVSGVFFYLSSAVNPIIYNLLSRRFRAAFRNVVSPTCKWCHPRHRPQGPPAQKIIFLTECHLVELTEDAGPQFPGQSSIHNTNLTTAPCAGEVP

Binder	% Activity (FLIPR)	EC50 (FLIPR)
FRVDEEFQSPFASQSRGYFLFRPRN-NH2 (not fully specified (N-terminus)) [NMU1]	87.1%	71.7 nM
Ac-C((PEG)2 40 kDa)FRVDEEFQSPFASQSRGYFLFRPRN-NH2 [NMU9]	100%	4.5 nM
Ac-C(Cholesteroyl)FRVDEEFQSPFASQSRGYFLFRPRN-NH2 [NMU10]	97.4%	41.5 nM
Ac-C(Cholesteroyl)GYFLFRPRN-NH2 [NMU11]	33.2%	1000 nM
Ac-C((PEG)2 40 kDa)FRVDEEFQSPFASQSRGYFLFRPRN-NH2 [NMU12]	43.4%	1000 nM

molecular target: T4, rat NMUR1-ATG; experiment: cell-based or functional assay

Binder	% Activity (FLIPR)	EC50 (FLIPR)
FRVDEEFQSPFASQSRGYFLFRPRN-NH2 (not fully specified (N-terminus)) [NMU1]	59.3%	718 nM
Ac-C((PEG)2 40 kDa)FRVDEEFQSPFASQSRGYFLFRPRN-NH2 [NMU9]	100%	9.7 nM
Ac-C(Cholesteroyl)FRVDEEFQSPFASQSRGYFLFRPRN-NH2 [NMU10]	80.1%	201 nM
Ac-C(Cholesteroyl)GYFLFRPRN-NH2 [NMU11]	50.9%	316 nM
Ac-C((PEG)2 40 kDa)FRVDEEFQSPFASQSRGYFLFRPRN-NH2 [NMU12]	52.7%	1000 nM
Ac-C((PEG)2 40 kDa)FRVDEEFQSPFASQSRGYF[dA]WRPRN-NH2 [NMU14]		240 nM and 133 nM

molecular target: T5, human NMUR1; experiment: cell-based or functional assay

Binder	% Activity (FLIPR)	EC50 (FLIPR)
FRVDEEFQSPFASQSRGYFLFRPRN-NH2 (not fully specified (N-terminus)) [NMU1]	83.7%	81.4 nM
Ac-C((PEG)2 40 kDa)FRVDEEFQSPFASQSRGYFLFRPRN-NH2 [NMU9]	94.4%	50.6 nM
Ac-C(Cholesteroyl)FRVDEEFQSPFASQSRGYFLFRPRN-NH2 [NMU10]	26.6%	1000 nM
Ac-C(Cholesteroyl)GYFLFRPRN-NH2 [NMU11]	20.6%	1000 nM
Ac-C((PEG)2 40 kDa)FRVDEEFQSPFASQSRGYFLFRPRN-NH2 [NMU12]	92.9%	58.6 nM
Ac-C((PEG)2 40 kDa)FRVDEEFQSPFASQSRGYF[dA]WRPRN-NH2 [NMU14]	95.7%	104 nM
Ac-C((PEG)2 40 kDa)GYFLFRPRN-NH2 [NMU7]	91.4%	79.6 nM

molecular target: human NMUR2 (human, UniProt Q9GZQ4 1-415); experiment: cell-based or functional assay
Sequence (Q9GZQ4 whole entry): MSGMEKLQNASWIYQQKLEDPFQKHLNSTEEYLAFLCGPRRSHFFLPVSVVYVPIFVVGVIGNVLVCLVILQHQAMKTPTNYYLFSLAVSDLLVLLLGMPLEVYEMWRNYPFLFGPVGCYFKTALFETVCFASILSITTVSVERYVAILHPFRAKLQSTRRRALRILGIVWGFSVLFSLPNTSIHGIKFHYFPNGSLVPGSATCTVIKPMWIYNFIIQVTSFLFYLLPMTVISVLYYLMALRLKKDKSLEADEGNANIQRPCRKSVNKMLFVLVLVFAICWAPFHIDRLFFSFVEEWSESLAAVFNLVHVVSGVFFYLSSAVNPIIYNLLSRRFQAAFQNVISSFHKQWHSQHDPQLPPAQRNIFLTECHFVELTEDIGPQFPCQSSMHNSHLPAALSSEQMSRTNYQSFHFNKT

Binder	% Activity (FLIPR)	EC50 (FLIPR)
FRVDEEFQSPFASQSRGYFLFRPRN-NH2 (not fully specified (N-terminus)) [NMU1]	85%	64.8 nM
Ac-C((PEG)2 40 kDa)FRVDEEFQSPFASQSRGYFLFRPRN-NH2 [NMU9]	94.3%	91.1 nM
Ac-C(Cholesteroyl)FRVDEEFQSPFASQSRGYFLFRPRN-NH2 [NMU10]	31.3%	1000 nM
Ac-C(Cholesteroyl)GYFLFRPRN-NH2 [NMU11]	37.3%	1000 nM
Ac-C((PEG)2 40 kDa)FRVDEEFQSPFASQSRGYFLFRPRN-NH2 [NMU12]	89%	119 nM
Ac-C((PEG)2 40 kDa)FRVDEEFQSPFASQSRGYF[dA]WRPRN-NH2 [NMU14]	0%	> 1000 nM
Ac-C((PEG)2 40 kDa)GYFLFRPRN-NH2 [NMU7]	91.8%	36.1 nM
